Measurements as given in the supplement of paper PMC5998384.

What was measured:
HeLa Kyoto [1] = experiment: solubility in G1/S (NP-40 vs SDS abundance) (log2 ratio); higher = more soluble; conditions: cell cycle stage: G1/S
HeLa Kyoto [2] = experiment: melting temperature (median over replicates), in situ; higher = more thermally stable
HeLa Kyoto [3] = experiment: solubility change mitosis vs G1/S (difference of NP-40 vs SDS log2 ratios) (log2 ratio difference); higher = more soluble in mitosis
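Throughout, for melting temperature (median over replicates), in situ: HeLa Kyoto cells synchronized by double thymidine or nocodazole block, proteins quantified by TMT10plex mass spectrometry, three independent biological replicates.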
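Throughout, for solubility change mitosis vs G1/S (difference of NP-40 vs SDS log2 ratios): synchronized HeLa Kyoto cells (double thymidine block for G1/S, nocodazole release for mitosis), protein amounts in NP-40 versus SDS lysates quantified by mass spectrometry, three biological replicates.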
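Throughout, for solubility in G1/S (NP-40 vs SDS abundance): HeLa Kyoto cells arrested at G1/S by double thymidine block, proteins quantified by TMT10plex mass spectrometry in mild NP-40 versus SDS extracts, three biological replicates.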

Chain of TGOLN2 (chain, as listed by the source): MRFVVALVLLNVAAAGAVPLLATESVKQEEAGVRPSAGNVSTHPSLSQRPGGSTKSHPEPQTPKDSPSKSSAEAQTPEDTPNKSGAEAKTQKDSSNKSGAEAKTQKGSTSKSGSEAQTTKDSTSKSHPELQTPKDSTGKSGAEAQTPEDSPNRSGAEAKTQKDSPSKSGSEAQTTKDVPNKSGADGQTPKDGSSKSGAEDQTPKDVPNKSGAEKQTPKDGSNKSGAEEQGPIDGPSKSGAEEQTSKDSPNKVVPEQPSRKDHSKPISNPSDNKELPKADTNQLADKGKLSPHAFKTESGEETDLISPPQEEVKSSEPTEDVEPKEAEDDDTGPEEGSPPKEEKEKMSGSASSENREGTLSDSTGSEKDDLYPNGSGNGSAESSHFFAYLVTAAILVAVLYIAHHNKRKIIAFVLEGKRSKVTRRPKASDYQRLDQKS

Substance	solubility in G1/S (log2) (HeLa Kyoto [1])	melting temperature (HeLa Kyoto [2]; cell cycle stage: G1/S)	melting temperature (HeLa Kyoto [2]; cell cycle stage: mitosis)	solubility change mitosis (log2) (HeLa Kyoto [3])
MDTEPNPGTSSVSTTTSSTTTTTITTSSSRMQQPQISVYSGSDRHAVQVIQQALHRPPSSAAQYLQQMYAAQQQHLMLHTAALQQQHLSSSQLQSLAAVQASLSSGRPSTSPTGSVTQQSSMSQTSINLSTSPTPAQLISRSQASSSTSGSITQQTMLLGSTSPTLTASQAQMYLRAQMLIFTPATTVAAVQSDIPVVSSSSSSSCQSAATQVQNLTLRSQKLGVLSSSQNGPPKSTSQTQSLTICHNKTTVTSSKISQRDPSPESNKKGESPSLESRSTAVTRTSSIHQLIAPASYSPIQPHSLIKHQQIPLHSPPSKVSHHQLILQQQQQQIQPITLQNSTQDPPPSQHCIPLQNHGLPPAPSNAQSQHCSPIQSHPSPLTVSPNQSQSAQQSVVVSPPPPHSPSQSPTIIIHPQALIQPHPLVSSALQPGPNLQQSTANQVQATAQLNLPSHLPLPASPVVHIGPVQQSALVSPGQQIVSPSHQQYSSLQSSPIPIASPPQMSTSPPAQIPPLPLQSMQSLQVQPEILSQGQVLVQNALVSEEELPAAEALVQLPFQTLPPPQTVAVNLQVQPPAPVDPPVVYQVEDVCEEEMPEESDECVRMDRTPPPPTLSPAAITVGRGEDLTSEHPLLEQVELPAVASVSASVIKSPSDPSHVSVPPPPLLLPAATTRSNSTSMHSSIPSIENKPPQAIVKPQILTHVIEGFVIQEGLEPFPVSRSSLLIEQPVKKRPLLDNQVINSVCVQPELQNNTKHADNSSDTEMEDMIAEETLEEMDSELLKCEFCGKMGYANEFLRSKRFCTMSCAKRYNVSCSKKFALSRWNRKPDNQSLGHRGRRPSGPDGAAREHILRQLPITYPSAEEDLASHEDSVPSAMTTRLRRQSERERERELRDVRIRKMPENSDLLPVAQTEPSIWTVDDVWAFIHSLPGCQDIADEFRAQEIDGQALLLLKEDHLMSAMNIKLGPALKICARINSLKES [PHC3]	-0.44	46.5 °C	50.2 °C	0.439
MAFTNYSSLNRAQLTFEYLHTNSTTHEFLFGALAELVDNARDADATRIDIYAERREDLRGGFMLCFLDDGAGMDPSDAASVIQFGKSAKRTPESTQIGQYGNGLKSGSMRIGKDFILFTKKEDTMTCLFLSRTFHEEEGIDEVIVPLPTWNARTREPVTDNVEKFAIETELIYKYSPFRTEEEVMTQFMKIPGDSGTLVIIFNLKLMDNGEPELDIISNPRDIQMAETSPEGTKPERRSFRAYAAVLYIDPRMRIFIHGHKVQTKRLSCCLYKPRMYKYTSSRFKTRAEQEVKKAEHVARIAEEKAREAESKARTLEVRLGGDLTRDSRVMLRQVQNRAITLRREADVKKRIKEAKQRALKEPKELNFVFGVNIEHRDLDGMFIYNCSRLIKMYEKVGPQLEGGMACGGVVGVVDVPYLVLEPTHNKQDFADAKEYRHLLRAMGEHLAQYWKDIAIAQRGIIKFWDEFGYLSANWNQPPSSELRYKRRRAMEIPTTIQCDLCLKWRTLPFQLSSVEKDYPDTWVCSMNPDPEQDRCEASEQKQKVPLGTFRKDMKTQEEKQKQLTEKIRQQQEKLEALQKTTPIRSQADLKKLPLEVTTRPSTEEPVRRPQRPRSPPLPAVIRNAPSRPPSLPTPRPASQPRKAPVISSTPKLPALAAREEASTSRLLQPPEAPRKPANTLVKTASRPAPLVQQLSPSLLPNSKSPREVPSPKVIKTPVVKKTESPIKLSPATPSRKRSVAVSDEEEVEEEAERRKERCKRGRFVVKEEKKDSNELSDSAGEEDSADLKRAQKDKGLHVEVRVNREWYTGRVTAVEVGKHVVRWKVKFDYVPTDTTPRDRWVEKGSEDVRLMKPPSPEHQSLDTQQEGGEEEVGPVAQQAIAVAEPSTSECLRIEPDTTALSTNHETIDLLVQILRNCLRYFLPPSFPISKKQLSAMNSDELISFPLKEYFKQYEVGLQNLCNSYQSRADSRAKASEESLRTSERKLRETEEKLQKLRTNIVALLQKVQEDIDINTDDELDAYIEDLITKGD [MORC2]	-0.0374	48.1 °C	48.6 °C	-0.0838
MTTAARPTFEPARGGRGKGEGDLSQLSKQYSSRDLPSHTKIKYRQTTQDAPEEVRNRDFRRELEERERAAAREKNRDRPTREHTTSSSVSKKPRLDQIPAANLDADDPLTDEEDEDFEEESDDDDTAALLAELEKIKKERAEEQARKEQEQKAEEERIRMENILSGNPLLNLTGPSQPQANFKVKRRWDDDVVFKNCAKGVDDQKKDKRFVNDTLRSEFHKKFMEKYIK [CWC15]	0.0823	55.4 °C	55.1 °C	0.681
TGOLN2	-0.315	59.5 °C	53.9 °C	0.881
